Test results taken from the supplement of paper PMC10899765.

How the values were obtained:
Conditions in all cases: 20 nM; 72 h
MCF10A [1] = assay: percent viability (nuclei count relative to siNT); higher = more viable cells
Description: (§1)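 After 72 h, cells were fixed and stained with Hoechst and anti-fibrillarin, and nucleoli per nucleus were counted with CellProfiler. Values are plate-adjusted percent effect for the one-nucleolus and 5+ nucleoli phenotypes, normalised to siNT (0%) and to the positive controls siNOL11 or siKIF11 (100%), as the mean of biological triplicates. Percent viability is the nuclei count relative to siNT.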

MCF10A [2] = assay: 5+ nucleoli phenotype percent effect (relative to siNT 0% and siKIF11 100%); higher = more cells with five or more nucleoli
Description: as §1

MCF10A [3] = assay: one-nucleolus phenotype percent effect (relative to siNT 0% and siNOL11 100%); higher = more cells with one nucleolus (ribosome biogenesis inhibition)
Description: as §1

| Sequence | percent viability (MCF10A [1]) | 5+ nucleoli phenotype percent effect (MCF10A [2]) | one-nucleolus phenotype percent effect (MCF10A [3]) |
| --- | --- | --- | --- |
| ACUCAAAAUGGGGGCGCUUUCC [hsa-miR-373-5p] | 83.7% | 34.3% | -11.8% |
| UUUCAAGCCAGGGGGCGUUUUUC [hsa-miR-498] | 61% | 23.7% | -7.63% |
| AAGAGGAAGAAAUGGCUGGUUCUCAG [hsa-miR-3916] | 14% | -13.2% | -5.24% |
| AAGGGGCAGGGACGGGUGGCCC [hsa-miR-6743-5p] | 29.4% | 0.112% | 1.94% |
| CCAGUGGGGCUGCUGUUAUCUG [hsa-miR-194-3p] | 138% | 10.5% | -11.8% |
| UGCCUCUUUUCCACGGCCUCAG [hsa-miR-6781-3p] | 38.9% | 2.23% | -1.18% |
| GGGACCCAGGGAGAGACGUAAG [hsa-miR-711] | 80.1% | 30.4% | -15.3% |
| ACCCUCGUCAGGUCCCCGGGG [hsa-miR-4655-3p] | 56.9% | 6.66% | -5.11% |
| UGGUGGGCACAGAAUCUGGACU [hsa-miR-541-3p] | 24.6% | -0.0057% | 17.6% |
| AGCUCUGCUGCUCACUGGCAGU [hsa-miR-3194-3p] | 22.1% | 6.75% | 1.77% |
| UCAAGUGUCAUCUGUCCCUAG [hsa-miR-6513-3p] | 126% | 42.1% | -7.47% |
| AGAGAUGAAGCGGGGGGGCG [hsa-miR-6088] | 91.6% | 6.48% | -6.8% |
| UCUGGCUGUGCUGUAAUGCAG [hsa-miR-6504-5p] | 54.2% | -5.01% | 6.53% |
| UUGGACGGUAAGGUUAAGCAA [hsa-miR-4804-5p] | 35.3% | -12.4% | 9.42% |
| ACAGGGCCGCAGAUGGAGACU [hsa-miR-3918] | 8.55% | -31.2% | 50.3% |
| UACCUGGGAGACUGAGGUUGGA [hsa-miR-7851-3p] | 61.5% | 24.6% | -15.4% |
| GGGUGGGGAUUUGUUGCAUUAC [hsa-miR-92a-2-5p] | 42.2% | -28.2% | 28.3% |
| GUUAGGGCCAACAUCUCUUGG [hsa-miR-2909] | 48.3% | 5.52% | -6.14% |
| UUGAGGAGACAUGGUGGGGGCC [hsa-miR-4689] | 103% | 2.8% | 12.3% |
| GGGUGAGGGCAGGUGGUU [hsa-miR-4710] | 19.2% | 22.2% | 17.1% |

| Sequence | percent viability (MCF10A [1]) | 5+ nucleoli phenotype percent effect (MCF10A [2]) | one-nucleolus phenotype percent effect (MCF10A [3]) |
| --- | --- | --- | --- |
| GCAUGUGAUGAAGCAAAUCAGU [hsa-miR-3607-5p] | 52.8% | -8.33% | -2.14% |
| UAAAGUGGCAGAGUAUAGACAC [hsa-miR-4796-3p] | 75.7% | -8.21% | -1.57% |
| UGCCUCCUCCGUGGCCUCAG [hsa-miR-6829-3p] | 22.7% | -1.77% | 0.866% |
| UAGCACCAUCUGAAAUCGGUUA [hsa-miR-29a-3p] | 65.1% | 46.9% | -24% |
| UGUGGGUUCUGGGUUGGGGUGA [hsa-miR-6793-5p] | 14.3% | -24.1% | 30.2% |
| UGUGCGCAGGGAGACCUCUCCC [hsa-miR-933] | 78.3% | -8.45% | 4.65% |
| UGGGGGAGUGCAGUGAUUGUGG [hsa-miR-5698] | 161% | 43.2% | -25.1% |
| ACUAAAGGAUAUAGAAGGUUUU [hsa-miR-4509] | 103% | 5.5% | -25.3% |
| CUAUACAAUCUACUGUCUUUC [hsa-let-7a-3p] | 93.9% | 10.6% | -10.4% |
| UUGUGAAGAAAGAAAUUCUUA [hsa-miR-3611] | 53.1% | -15.1% | 12.5% |
| AAAAACCACAAUUACUUUU [hsa-miR-548ap-3p] | 30.2% | -30.6% | 16.7% |
| AGGCGAUGUGGGGAUGUAGAGA [hsa-miR-6717-5p] | 30.5% | -15.8% | 19.4% |
| UGGGUCUUUGCGGGCGAGAUGA [hsa-miR-193a-5p] | 40.4% | -18.7% | 26.5% |
| UACCCAUUGCAUAUCGGAGUUG [hsa-miR-660-5p] | 30% | -38.8% | 44.9% |
| AGAGCUUAGCUGAUUGGUGAAC [hsa-miR-27b-5p] | 78.6% | -22.4% | 17.8% |
| CUGGGAGGUGUGAUAUUGUGGU [hsa-miR-3689c] | 9.66% | -32.9% | 44% |
| UGUGACUGCAUUAUGAAAAUUCU [hsa-miR-3118] | 26.7% | 5.27% | 20.9% |
| CCACUUGGAUCUGAAGGCUGCCC [hsa-miR-3614-5p] | 32.9% | -32.4% | 36.9% |
| CUGGGGGGAGGAGACCCUGCU [hsa-miR-7109-5p] | 38.9% | -2.63% | 29.9% |
| UAUGUCUGCUGACCAUCACCUU [hsa-miR-654-3p] | 38% | -34.7% | 28.2% |

| Sequence | percent viability (MCF10A [1]) | 5+ nucleoli phenotype percent effect (MCF10A [2]) | one-nucleolus phenotype percent effect (MCF10A [3]) |
| --- | --- | --- | --- |
| CAAAAACUGCAAUUACUUUUGC [hsa-miR-548aq-3p] | 115% | 13.8% | -26.6% |
| GUGGGUAGGGUUUGGGGGAGAGCG [hsa-miR-1229-5p] | 67.9% | 53.7% | -23.1% |
| UCAGGGAGUCAGGGGAGGGC [hsa-miR-4270] | 9.71% | -37.6% | 36.8% |
| CCUGACCCACCCCCUCCCGCAG [hsa-miR-4750-3p] | 95.7% | 40.4% | -19.1% |
| GCUGGUGACAUGAGAGGC [hsa-miR-4299] | 42.6% | 34.1% | -5.58% |
| ACUGGGUAGGUGGGGCUCCAGG [hsa-miR-6861-5p] | 31.9% | -15.5% | 6.88% |
| GACCGAGAGGGCCUCGGCUGU [hsa-miR-4523] | 67.7% | 18.2% | -18% |
| AAAGUGCAUCCUUUUAGAGGUU [hsa-miR-519b-3p] | 104% | 75.9% | -24% |
| ACGGAUGUUUGAGCAUGUGCUA [hsa-miR-105-3p] | 117% | 12.2% | -17% |
| AAUGUGUAGCAAAAGACAGA [hsa-miR-511-3p] | 18.7% | -40.6% | 55.2% |
| CUCCUGACUCCAGGUCCUGUGU [hsa-miR-378a-5p] | 25.2% | -8.66% | 10.6% |
| ACUCAUUCUCCUCUGUCCAG [hsa-miR-6758-3p] | 147% | 81.4% | -26.2% |
| CAGGGCAGAGGGCACAGGAAUCUGA [hsa-miR-6735-5p] | 31.9% | -26.5% | 11.3% |
| CAAAAACUGCAGUUACUUUUGC [hsa-miR-548ah-3p] | 144% | 63.6% | -24.8% |
| CUGCAAAGGGAAGCCCUUUC [hsa-miR-527] | 32.8% | -41.4% | 46.6% |
| UGAGACCAGGACUGGAUGCACC [hsa-miR-4786-5p] | 42.2% | -0.448% | -5.75% |
| GCAGUUCUGAGCACAGUACAC [hsa-miR-4277] | 210% | 31.2% | -25% |
| UUCUGCUGCCGGCCAAGGC [hsa-miR-6071] | 27.8% | -25.7% | 22.1% |
| GGCGGCGGGGAGGUAGGCAG [hsa-miR-8072] | 49.8% | -2.29% | -6.87% |
